± gives the standard deviation of the averaged measurements.
B1: library; a variant is named by its letters at N, in order (parent)
chain: GCUGUCACCGGUGCUUGGUACGUUAUAUUCAGCCGGUCUGAUGAGUCUNNNNNNAGACGAAACAGC

What was measured:
(6R,S)-folinic acid [1] = variants of: B1; test: normalized RNA/DNA level without ligand (relative to sTRSVctl = 100) (log10 (% of sTRSVctl)); HEK293T overexpressing SLC46A1; higher = less ribozyme self-cleavage, higher mRNA level; conditions: without (6R,S)-folinic acid; ligand present: no
In short: (§1)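 HEK293T cells received ligand, where used, 1 h before being transfected with 4 µg per 6-well well of library plasmids encoding reporter-linked ribozyme switches. After 72 h, RNA was extracted with EDTA and sequenced. RNA level was derived from RNA reads per DNA read, normalized to a spiked-in non-cleaving sequence or the top sequences, then scaled and log-transformed. Values were ×100 then log10, the top set was 25 sequences, and the minimum was 100 DNA reads.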

(6R,S)-folinic acid [2] = variants of: B1; test: normalized RNA/DNA level with ligand (relative to sTRSVctl = 100) (log10 (% of sTRSVctl)); HEK293T overexpressing SLC46A1; ligand concentration (+) RNA-Seq: 6 mM; higher = less ribozyme self-cleavage, higher mRNA level; conditions: with (6R,S)-folinic acid; ligand present: yes
In short: as §1

Variant | normalized RNA/DNA level without ligand (log10) ((6R,S)-folinic acid [1]) | normalized RNA/DNA level with ligand (log10) ((6R,S)-folinic acid [2])
AGAUCC | 2.058 ± 0.0091 | 2.033 ± 0.02
AGAUCU | 2.0242 ± 0.00035 | 2.05 ± 0.032
AGAUCG | 1.992 ± 0.0077 | 2.013 ± 0.019
UGAGCA | 1.95 ± 0.014 | 2.0212 ± 0.00076
UGAGCC | 2.038 ± 0.0055 | 2.04 ± 0.041
CGAUUG | 2.028 ± 0.018 | 2.02 ± 0.035
CGAUUA | 1.958 ± 0.017 | 1.992 ± 0.013
CGAUUU | 1.984 ± 0.0069 | 2 ± 0.026
CGAUUC | 2.089 ± 0.019 | 2.08 ± 0.048
UGAUAU | 1.92 ± 0.034 | 1.984 ± 0.014
UGAUAG | 1.7093 ± 0.0017 | 1.96 ± 0.049
CGAGAG | 1.964 ± 0.015 | 1.964 ± 0.0059
CGAGAC | 1.947 ± 0.015 | 1.974 ± 0.012
CGAGAU | 1.957 ± 0.011 | 1.99 ± 0.025
CGAUAC | 1.995 ± 0.013 | 2.015 ± 0.0083
CGAUAA | 1.946 ± 0.015 | 1.98 ± 0.04
CGAUAG | 1.959 ± 0.0024 | 1.977 ± 0.01
CGAUAU | 1.949 ± 0.0095 | 2.01 ± 0.028
CGCACC | 2.079 ± 0.014 | 2.07 ± 0.063
CGCACG | 2.046 ± 0.0062 | 2.026 ± 0.018

Variant | normalized RNA/DNA level without ligand (log10) ((6R,S)-folinic acid [1]) | normalized RNA/DNA level with ligand (log10) ((6R,S)-folinic acid [2])
CGCACA | 1.989 ± 0.0068 | 1.98 ± 0.026
CGCACU | 2.0385 ± 0.00015 | 2.01 ± 0.034
GGAUGC | 1.912 ± 0.002 | 1.962 ± 0.015
GGAUGG | 1.948 ± 0.012 | 2.02 ± 0.033
GGAUGU | 1.972 ± 0.0047 | 2.03 ± 0.052
GGAUGA | 2.024 ± 0.02 | 2.058 ± 0.0075
GGCAGC | 2.001 ± 0.008 | 1.98 ± 0.032
GGCAGA | 2.077 ± 0.0039 | 2.033 ± 0.004
GGCAGU | 2.058 ± 0.0031 | 2.013 ± 0.0043
GGCAGG | 2.064 ± 0.015 | 2.045 ± 0.0058
CGAGCA | 2 ± 0.021 | 2.02 ± 0.029
CGAGCC | 2.06 ± 0.028 | 2.03 ± 0.039
CGAGCU | 2.014 ± 0.02 | 2.03 ± 0.04
CGAGCG | 1.994 ± 0.015 | 1.998 ± 0.017
CGACUC | 2.08 ± 0.023 | 2.04 ± 0.07
CGACUA | 2.014 ± 0.0047 | 2.042 ± 0.0086
CGACUU | 2.01 ± 0.035 | 2.05 ± 0.025
CGACUG | 2.028 ± 0.0025 | 2.014 ± 0.011
GGACUC | 2.0453 ± 0.0012 | 2.05 ± 0.03
GGACUU | 2.007 ± 0.0068 | 1.976 ± 0.016

Variant | normalized RNA/DNA level without ligand (log10) ((6R,S)-folinic acid [1]) | normalized RNA/DNA level with ligand (log10) ((6R,S)-folinic acid [2])
GGACUG | 1.9977 ± 0.00047 | 2 ± 0.059
AGAUGC | 2.017 ± 0.0026 | 2.03 ± 0.021
AGAUGU | 1.971 ± 0.0095 | 2.02 ± 0.036
UGACUU | 2.006 ± 0.014 | 2.017 ± 0.015
UGACUC | 2.075 ± 0.011 | 2.042 ± 0.0068
UGACUA | 1.963 ± 0.0017 | 2.0143 ± 0.0019
AGCAUA | 1.985 ± 0.014 | 2.017 ± 0.016
AGCAUG | 1.957 ± 0.004 | 2.03 ± 0.018
AGCAUU | 2.012 ± 0.0048 | 2.01 ± 0.028
AGCAUC | 2.082 ± 0.012 | 2.0495 ± 0.0016
AGACCC | 2.039 ± 0.0085 | 2.02 ± 0.055
AGACCG | 2.05 ± 0.026 | 2.04 ± 0.029
CGCCAU | 1.986 ± 0.0097 | 1.98 ± 0.034
CGCCAC | 2 ± 0.028 | 1.99 ± 0.042
CGCCAA | 1.973 ± 0.014 | 2.02 ± 0.048
GGAUAG | 1.95 ± 0.0034 | 2.03 ± 0.038
GGAUAC | 1.988 ± 0.011 | 2.034 ± 0.013
GGAUAU | 2.0169 ± 0.0015 | 2.02 ± 0.023

Reference: the supplement of paper PMC6757056
